Experimental data reported in the supplement of paper PMC9170038.

Tested on: MS2 coat protein
Experiment: apparent KD of MS2 coat protein; designed switch direction (-1 OFF switch, 1 ON switch): -1; higher = weaker reporter binding
In short: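 Transcription of designed RNA switches on Illumina chips was done by stalled E. coli RNA polymerase. SNAP-549-labelled MS2 coat protein was then titrated in doubling steps from 0.7 or 1.5 nM to 3 µM, with steps of 0.8–1.5 h at the lowest and 10–20 min at the highest concentration. The per-design median over clusters of curve-fitted normalised fluorescence is reported as apparent KD.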

[1] = input ligand: microRNA oligo, concentration not stated
[2] = Eterna round: R95, input ligand: FMN 200 uM
[3] = Eterna round: R95, input ligand: microRNA oligo, concentration not stated
[4] = Eterna round: R95, input ligand: none

Row | Sequence | apparent KD of MS2 coat protein (input ligand: FMN 200 uM) [nM] | apparent KD of MS2 coat protein (input ligand: none) [nM] | apparent KD of MS2 coat protein [1] [nM] | apparent KD of MS2 coat protein [2] [nM] | apparent KD of MS2 coat protein [3] [nM] | apparent KD of MS2 coat protein [4] [nM]
1 | UUAGGCUCUGGUUCGUAUUACAUGAGGAUCACCCAUGUGGCCAAGUGAGUUGGGCCGGUCAUGAUUUUGCUCGUUAU [Eternabot (L2) Solution 13] (Eterna round: R97, puzzle: Sensor, turn-off variant 1) | 48.3 | 59.4 |  |  |  | 
2 | AUCGUGUGAGGAUAUCGAUGUUGGACGUCUAGGUCUAAGCGCGAGAAGGCACAUGAGGAUCACCCAUGUAAUGG [jl-ex4-4.27 ViennaUCT mod] (Eterna round: R97, puzzle: Exclusion 4) | 249 | 910 |  |  |  | 
3 | AAAACGUCAGGAUAUACAGAAGAGAUCACAAAAAAAAAAAAACAUGAGGAUCACCCAUGUAGAAGGGACAAAAA [Ex2 Malc#2] (Eterna round: R96, puzzle: Exclusion 2) | 185 | 115 | 81.2 |  |  | 
4 | GGUUGGCGAGGAUAUACAUGAGGAUCACCCAUGUGAGAAAAUAAGUGAGGAAAGAAAAGUAGAAGGCGCUGACG [Mat - Exclusion 3 - Mod of Salish D53] (puzzle: Exclusion 3) |  |  |  | 570 | 55.8 | 37.1
5 | AAGAAGAAGUAAGGAUAUGAAGAUCUGGUGGUGACAUGAGGAUCACCCAUGUGAAAACAAUAAGAUCAGAAGGUAUAAGAAGAA [AK ExNG2-3.1] (Eterna round: R96, puzzle: Exclusion NG 2) | 81 | 87.9 | 70.4 |  |  | 
6 | GAUGGACAUGAGGAUCACCCAUGUAAGGAUAUUGAUUAUGGUUAUAAAUAAUUAUGGUCAAGAAGGUACUCGUC [-17.8, -14.8 kcal, A 34%] (Eterna round: R97, puzzle: Exclusion 1) | 114 | 147 |  |  |  | 
7 | GUGUUGGUAGGAUAUCCACCGACAAACAUGAGGAUCACCCAUGUGACGCUCCCUUGUCUUGGAGAAGGGCCGGCAU [Riritequla] (puzzle: Exclusion 5) |  |  |  |  | 42.4 | 
8 | UAACUUCUUGUAAGGAUAUUGGCGCGAAAGCGAACCGAGAAGGUACAUGAGGAUCACCCAUGUGAAAUAAGAAU [Mod of Zala 14 - Jieux - Brourd's Mod of Exclusion 4] (Eterna round: R97, puzzle: Brourd's mod of Exclusion 4) | 574 | 40.3 |  |  |  | 
9 | AAUACCCGAGGAUAUCUAAUUCGGCACAUGAGGAUCACCCAUGUGAUCUGACCUAGCCGAGGAGAAGGCGGGUCAG [Errizabe] (puzzle: Exclusion 5) |  |  |  | 25.8 | 12.9 | 12.1
10 | AAAGUGUUAGGAUAUAGGCGCAGCCAGACGCAGGAAGCGUCCUAGAAGGAACAUGAGGAUCACCCAUGUGGGCG [Eternabot (Original) Solution 41] (Eterna round: R97, puzzle: Exclusion 4) | 1180 | 364 |  |  |  | 
11 | UGAUCUUGUGUUAGGAUAUGCUGGUUUUUUUUUCAGCAGAAGGGACAUGAGGAUCACCCAUGUUCUCUCUUUUU [Magic-10] (puzzle: Brourd's mod of Exclusion 4) |  |  |  |  | 15 | 
12 | ACAUGUAAUGUAGGAUAUUUUACACAUGAGGAUCACCCAUGUGACCGGAGGCUUUACUAUGAGUAAAAGAAGGGUAUGUACAUG [Ex NG2 #61] (Eterna round: R96, puzzle: Exclusion NG 2) | 68.5 | 45.8 | 33.1 |  |  | 
13 | AGUAACUAUCACGAAAGUGAUAGUUACACAAGUGAAUAAACAUGAGGAUCACCCAUGUCCUCAUUUGCUCGUUUUAU [Sensor 3 - 17] (puzzle: Sensor v3, turn-off variant 2) |  |  |  | 486 | 553 | 400
14 | GCCCAGAGAGGAUAUACAUGAGGAUCACCCAUGUAGAGCUUGUCUGCAGUGAAAGGAUGUAGAAGGCUCGGGCA [Racearza] (Eterna round: R97, puzzle: Exclusion 3) | 42.6 | 26.8 |  |  |  | 
15 | UUUUCUUUUGUGAGGAUAUACUUGUUUUUUUUUUUGUAGAAGGCACAUGAGGAUCACCCAUGUUUUCUUUUCUG [JR_BME4_Sub026] (puzzle: Brourd's mod of Exclusion 4) |  |  |  |  | 20.6 | 
16 | ACUUAUAGAGGAUAUACAGAAUAUUACAUGAGGAUCACCCAUGUUCUUCAAUGUAUAUAUGUAGAAGGCUAAGGAA [JL-ex5-4.22 Malcolm mod] (Eterna round: R97, puzzle: Exclusion 5) | 252 | 88.8 |  |  |  | 
17 | CAGCUGUCAGGAUAUCGUGCAUACAACGAAAGUUCUAUGUGCGAGAAGGGACAUGAGGAUCACCCAUGUUUCCG [Omei Ex4 A23] (Eterna round: R97, puzzle: Exclusion 4) | 21.1 | 16.1 |  |  |  | 
18 | GUGAAGUGAGGAUAUACGAGAGAGGCUGAACCUGGAGAGAAGUAGAAGGCACAUGAGGAUCACCCAUGUAAGGA [JR_Exclu4_Sub020] (puzzle: Exclusion 4) |  |  |  | 36.7 | 36.1 | 34.4
19 | CUUGUUUAUGUAGGAUAUGCCUGGCGUGCCUUUGCAGAAGGACAUGAGGAUCACCCAUGUGGUAUGAGGCUUACCCUUGUCGCC [salish99_ExNG1_r04_121] (Eterna round: R96, puzzle: Exclusion NG 1) | 30.6 | 28.9 | 21.1 |  |  | 
20 | ACGUACAAGCCGAUCCUAAACAUGAGGAUCACCCAUGUGCUCGUUUUGUAAAGUACUAUCACGAAAGUGAUAGUACA (Eterna round: R97, puzzle: Sensor, turn-off variant 1) | 114 | 122 |  |  |  | 
21 | AAUGCCGUAGGAUAUAUAUGGCAGAUCGCACGUCCUGAAAGACAUGAGGAUCACCCAUGUAGAAGGGCGGAAAC [Ceisisan] (puzzle: Exclusion 2) |  |  |  |  | 14.1 | 
22 | UAUUUACAUGAGGAUCACCCAUGUCAGGAUAUGUUUCUAUCGUCGAAAGACGAUAGUUGCAGAAGGGACAAUAU [LRO-Excl01-25 mod derived from EliFisker 4.24] (Eterna round: R97, puzzle: Exclusion 1) | 94.1 | 48.5 |  |  |  | 
23 | AAUAAUGAUAAGGAUAUUACUAGCGAUAGCUAGUGAGAAGGUAUCACAUGAGGAUCACCCAUGUGUUCCAAUAA [Ex6/6-B4] (Eterna round: R97, puzzle: Exclusion 6) | 70.1 | 17.3 |  |  |  | 
24 | CUAGGGCGCAUUUAAACGCCCUAACAUGAGGAUCACCCAUGUCAGGAUAUGUAGGCAAAGACCCUACAGAAGGGACAUGUCCUA [Lainceso] (Eterna round: R96, puzzle: Exclusion NG 3) | 264 | 72.7 | 57.1 |  |  | 
25 | GUCAGCUCGUGAGGAUAUACAUGAGGAUCACCCAUGUGAUCAAUAGCAGCUUCGGCUGCAUACAUGUAGAAGGCACGAGCUGAC [ENG2/6-A1] (Eterna round: R96, puzzle: Exclusion NG 2) | 22.4 | 28.5 | 19.7 |  |  | 
